Test system: Saccharomyces cerevisiae
Assay: transcriptional activation domain activity (GFP:mCherry ratio, weighted mean of sorted bins, harmonized to initial dataset scale) (arbitrary fluorescence ratio units); higher = stronger transcriptional activation
Conditions: beta-estradiol 1 µM; induction time 4 h
How it was run: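 The listed activation activity is a read-weighted mean of bin median fluorescence, averaged across barcodes and linearly mapped onto the initial dataset scale. Barcoded tiles, fused to an estradiol-inducible synthetic transcription factor, were integrated at URA3 in yeast diploids bearing a GFP reporter. Cells were held 4 hours at 30 °C in SC with 1 uM beta-estradiol, sorted into 8 GFP:mCherry bins, and sequenced, and tiles with fewer than 50 reads were excluded.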

Sequence	transcriptional activation domain activity
HAQPRAGDSTRPQESASSSDRPADASGEGGGISKKKKAKRSAAKEEGAGAEDP	37300
SDVEDEESSEDEAPARGKKRGRAGQAAKRRRESSLLVTVFADVLVTDVSVFVG	59400
ETVLKDLKSNQNIDTTVQKLFANCLFYARRIALIHPNLTSIKALLLLMVALEC	81600
RKKRRSTRRSRSREESSRRRGDDRRRNHSRDRSTTSRRRSRKSRSPSRDRSSR	32300
IWMILEIARSTLVFFRIYNFGHFVYNLVTKFDLMAIIPLLLVTLLPQIWFFCF	33800
LVDVFGRIESCFQRIGIYTRVPPTTEMMDMIIQIMVEVLTILGIATKEMKQSR	63000
GKTYTLEQDEDVLDTWFSSGLWPFSTLGWPNQTHDLENLFPTDVLETGWDILF	126000
PAVRVLPCNHGPGGDLCIICRTPLFQLTLFKYLMTKMCHVRTWLMFGILDLTF	47700
NPSSAPAQTATTAASGTPSLFGSKPAQATGAPSSLFGGQPAAASTGASTQATP	24200
WETIGTILYLFYVFTFLRLRFFLLLFYLYELTTMISLTIYIILYTLLFYFSCY	41200
STFGKYVHCRLLEGNTGMKIPQAAVIALIFRFLEKLVNTRLAVISRRWAMVTL	67000
YVKSRGYKTIIRFFPHEVADLELARACMRGAAREPRQWALRYAALLWLALICM	68700
AKLALILVLFEVYVKWFKLEKLYGRSDFLLVESLHYQYFCILCLCVVEFVIWH	45300
FFPSFSFSFSSFSFLLFISSSYSFFLFFPSSYSFFLFFFFYLIPYLLDFFPFL	50500
VPRHLFEKSTLKSLFYVGRHLGLTAAFYVFATHIDRIAWELCARFGYGHRIRG	20700
IIVICSVALYKVVSITGVGLVCLLLAGYLCFFNLFCSNVIRLSLLFLPINARP	58000
AAERRQQGHRAKENEKRRQEEARRGRKERGAGGGKAKAGRKPAGQPRRRRSRE	32900
TKQGHELLHQLRHLIIFREGMPCSDITLKLDIHVSKLVFVFLSAFEHGLCSKD	58200
AYLTFCIYLCFWSYLNLRLAGLFFFSLFIILFPPRVSWLHYFSFLFYSGVFCF	51000
CPACLSVCTYYLRCLLCSAALYTMGLLAFWWRFLFWHDCILLWSLSLFPFTLS	87400
MGLWARFFCFVIVCFQITFLYCLLSFSPSFLDLQKIQPLFFTFFFFLLLSLFP	43200

Sequence	transcriptional activation domain activity
YIQDIQCLQFENGGVGRMELEAKHWMIYHGILLAKILRLLEDSPLKRFTIVNA	47800
HSMPSLATICGVCFIVDVYCIMRISLLHSYWIPMRRTLPLLAFPVVSFIFLFF	79400
MVLLDVGWLCISRFILLDSMLLFFTFLTVFCLTKFHNQQYQSFSVDWWVWLFL	67700
MKAEYITLINLLVHPSFVLWESPLPTLSFFFFFFFFLAWSPFRVFSLFVIPSL	50300
VLPVRFPKDCDQVFIACAVDCAELWRPGWKANIWVISHRRMIVSTVHIRHLSR	48200
VCGAHCGYILGHINIFQPINWVLVQSSKVFPIDYVLFLLLVLFFFSASVVGLA	21400
RDKKKARAKGGAGAAGGEKKAEGAAAGDAAAAADGEDEEREGKRRKIARAAEG	42200
APKEETTKPTIEVKIDVGSRCEVESTEPGLSKRGTVRFVGQTSFGNGEGVWVG	42200
ELWHSLYMLFKTYWCRLLHYALSLVLLCSFIVRLVSVIAILDSKRCGLTLFAA	73200
CKWLGFILLFVPVILSFLFPFLFYSFFSSFVFFFFFFFFVMAVFLFLQSPRSF	23300
IQEDNEEGERRRRRRKGKAGEETEGEKKEKKRKKNGATKSGKRGKMERNGKLK	28400
KQLAKKTESFSGSDLKHLCVSAALDAVKERVTVPWRHSTTSAPSSSAPAEAQP	19000
VRDMPQADPGADRAFDASLESSMRKLLDGLAGTSWPAKTSVWVSKLRIACNHV	61200
RYLYAAMNLLSIINPIFSLIQFVIACFLVAGNLSLVYVRVWGPIVLLSLFLFD	45800
AIEQFLDNLISQDMMSSNASMNSESHLHIRSPKKQHRYTELNQRYPETHPHSN	8240
MFYFLLLYQSIVFLPYIFFSQFLIWVWCGLGREPGWHLEHGVYRYRWVRILSI	39300
WEPPLYDSVGNHNHAGTMESHPHTNIHEELKEFLSGDLIEAEDNAKLMFGDDN	55300
NAPTADTDIATNLGKERNENFGMLNYNYEALLHFNDEHFNELNSIDPALISKY	107000
TEVHVARERIMSYALNLFQLAAGPSEYLANLQTGYHYVACLQWLLRFKIFALV	57300
MWYFSRCTRWFLPLLLLPMPTAPPYFLLLFLLSFILHAKPCFYCVILITSLFI	60200
TAALIELILAIAFRVTMYHLALYGSNVLFRYMRLSNELSNRYANCLVATLNAR	23200

Sequence	transcriptional activation domain activity
TTLTEKGSQVMEKNMDQLDSVHNLNDDDLQQLLEDLGNIDHSDEKLWKEITDQ	93200
GLCLLYISGLVCATIVCYIEFTMHQSALLNATRLTPFMIAALCLTLFLNIIAT	57200
VQRYLCQYQPQITLGFMIFTDMIFFFLDTYLCYVLLNTIFSIARSFYIGSSIW	56700
GMKNIDEGPETENDATENSLTTILNDLEGPLEDFSENFIDDILGSPSAFFDTA	151000
SSPSSQTSSSTSVVLVFGLEEKRVKEAGEQLKSKLGVKGGGKGPRWSGKFVGV	51600
MLLLLPLHMLLQRHTLPNFFTFFSIIIIFLFLFSFFFFLFFFFLLFFLLLPGG	76400
TLELFKLKLVRPASKVYHMGGCAELWGFLVMQNHFRDGEGGHFNSITIDVKWA	59800
QILICVIYVLVAYSRDDTSWSRVCYFMPCAPQSIKERDQAFSLFAGIFSFVVV	39200
YVSVNEHGDETDSSFVRLVNLGSSIVIQHITCYLQSRVVFYLMNLHSMPRAIF	60800
NELAVLVDGLNRVLLTHKDDIGIISHVMLAYMIAATRFKRLFVSGGGYMLFMP	45800
LTNLNEIDFTNMFCNDNFIQNYNQGLMELLTEPTPGPSSSSCILPSTPTRPLS	83000
ERRRKDQRKREKEEEERCHQEGREKKGEEHRREGDEERGRKEQETHASQEANG	29600
KRQKSRKGSESDAESEGEGDRGGARAYGKSRPQGRSADARADRKSAKGARAPQ	34200
MAVSIWDFVLCIFPHLHFLCLWIVFLSLFMFSYCFKFRFTPVLLTISLPRCFF	51200
NLLLFPGISFKTQLLYAIVFCTRYLDLFIRFVSIYNTLMKIFFIGSSFYILYL	67300
EEEAEPKPAASAPAVAPAADEEGDDQGGDDAAKKKKKKKKGKKDEDAEPAPAA	35300
GAGVGGATDGAEGKKGDGGGGKEKEREEGERRKKKKKRNKEGRDGGGGGTGGD	43300
YIFMISLSSYSLSLINTLVSFGLLLLYTPSYRLWGWNPPFRAPKIIIFLFFLS	48300
RKNTSSEEDELEESRNNRNKNHRSRQDGNKEDRSSRSRQSHRQKRERSGSEER	14100
MASKDPVYDEKTGAPKLVAESDSSNVETGGGTPERTLHRQLKNRHIAMISIGG	44900
LPSFLFSSLYCFSLLFLSFLSFFPFLTLLLLFSLFPSLSLSLFFSLLFSPQRL	63400

Sequence	transcriptional activation domain activity
GAVMPILMQFFFIMAWNGICNGMHLYAAYNLRTHVLARLFWSILWPLLSSLCS	59900
FPFFLSSLFFFLPFFSFFPFFLSSLFLLLFFSFSSSSYQTFSLREQFFHLFFT	43500
SFLYWGSAGLFGIYVMSFQDSWWYQMEHLWVKYPHWMMRSELKVYYLLQFSYW	21600
TLLYLYTFSFLFPPLLFILILLHLHHLSSSHLFFIHSIILSHNKLWPLLFLLS	53400
MHRPVCSGQSPPFFSPTSPIHFILPFLFSIFSFPHGAGVSMHIGRLVLLFFFF	59300
GPWFLGAFIPSIPQYGLFYPYGIYFPDTKEWIPILDTFYIALWEHTFFIFPLL	51600
KEKEDYALAIKLYADSIIITLRRLFKELDYIEIKSLIISSMFKVLLYNLLIYK	66200
GSHQGKEAKKEEGKKEEGKDKKEEEEGKKGGKKGGKKGGKGGKGKKTGETEAS	38000
TKIGTGMGEQMLSREYYYIGTQLPLDRFLTFYYAHPGFHVNNIFIMLSVQLFM	51100
ITGTAYLGKFLRNTLGYDLEVFHAELMVKADIFSLNPHEIMNLIVILFHLMLY	57900
AAKALCKLQEAILKTYGMPGLLCMLRGISFHIYAVLTCTMLHLVAITCPDPDI	32900
MAIDIFFCLAVHIPTCVNLWGHVRTILYVQLVTVMYPSHFLFYFLFLLFYFFL	34200
TELYRFTLAQSEQPGMYPLDLAWLDWDLVSSLWSYSLWSIQLSIYFFCPFAYF	61400
SPKKAAAPKKPAAKKATEAKKASVKPKAAKETKEKKEAKPKAAKAAKPAAAAP	28100
FIVLYLSHRQLIIVNPCYLLGHHACSLLCLLILHNFHIWLSYVGTVLFCFCFS	78400
ATIMYLGLCITFLPFLVIYVIYNICSAFYVVLLGLGLLVYWLTRNSRLLKWAF	45800
RNGKRTRNARKLRKPRRSRRRGEEKKKPNASALKRQRRREKKQEEELRRKQKR	47800
IVEGLLGVDFIWQDNLPDLIDQFTNLLTLGLDFQAIDFHGGLSWNYLPSTFIN	63500
AKAEAEIKTEAEVKAEAEAPADEEAQTAGGKKKKAKNKKKKKAAAAAAAAAEA	36300
MYHIVIIIPLCLLLFGPFILATDSPFCIVRHPFFFFFLFYQSFIAFTFFFFFT	62700
